Target: cytochrome c oxidase (ferrocytochrome c:oxygen oxidoreductase), solubilized complex

Row | Activity in the cytochrome c oxidase reaction, % of WT [%] | Activity, s^−1, in the cytochrome c oxidase reaction (oxygen uptake by solubilized CcO with ascorbate and TMPD, 25 °C) [s⁻¹] | Substance
1 | 25 | 54 | cytochrome c with substitutions E69K/K72E (from UniProt P00004 1-105) (natural protein)
2 | < 1 | < 1 | cytochrome c with substitutions K8E/E69K/K72E/K86E/K87E (from UniProt P00004 1-105) (natural protein)

From article PMC10528150
